Measurements as given in patent US20100286374A1 (Amgen, published 2010).
Positions count from the first letter of the chain named. Names and notes keep the numbering of the source.

B1: Fc-containing molecule with triple mutation D399K, E356K, E357K (Fc fusion)
chain: HMAEVQLQQSGAELVKPGSSVKISCKASGYTFANNFMHWIKQQPGNGLEWIGWIYPGDGDTEYNQKFSGKATLTADKSSSTAYMQLNSLTSEDSAVYFCIRLTEGTTYWGQGVMVTVSSGGGGSGGGGSGGGGSQFVLTQPNSVSTNLGSTVKLSCKRSTGNIGSNYVNWYQQHEGRSPTTMIYRDDKRPDGVPDRFSGSIDGSSNSALLTINNVQTEDEADYFCQSYSRGVSPVFGGGTKLTVLAAAEPKSCDKTHTCPPCPAPELLGGPSVFLFPPKPKDTLMISRTPEVTCVVVDVSHEDPEVKFNWYVDGVEVHNAKTKPREEQYNSTYRVVSVLTVLHQDWLNGKEYKCKVSNKALPAPIEKTISKAKGQPREPQVYTLPPSRKKMTKNQVSLTCLVKGFYPSDIAVEWESNGQPENNYKTTPPVLKSDGSFFLYSKLTVDKSRWQQGNVFSCSVMHEALHNHYTQKSLSLSPGK
B2: Fc-containing molecule with triple mutation K409D, K392D, K370D (other)
chain: EPKSCDKTHTCPPCPAPELLGGPSVFLFPPKPKDTLMISRTPEVTCVVVDVSHEDPEVKFNWYVDGVEVHNAKTKPREEQYNSTYRVVSVLTVLHQDWLNGKEYKCKVSNKALPAPIEKTISKAKGQPREPQVYTLPPSREEMTKNQVSLTCLVDGFYPSDIAVEWESNGQPENNYDTTPPVLDSDGSFFLYSDLTVDKSRWQQGNVFSCSVMHEALHNHYTQKSLSLSPGK
B3: Fc-containing molecule with triple mutation K409D, K392D, K439D (other)
chain: B2 chain with D155K, K224D

Biological target: the molecule itself
Test: homodimer formation; expressed alone in 293-6E, western blot with goat anti-human Fc HRP
From the text: FIG. 11. […] Fc molecules were detected using goat-anti-human Fc HRP conjugated at 1:10,000.
DNA was transfected into human embryonic kidney cell line 293-6E using Lipofectamine™ 2000 reagent (Invitrogen). The cell culture supernatant was harvested 3-4 days after transfection and analyzed on SDS-PAGE Gels under non-reduced condition. The gel was then transferred to nitrocellulose membrane and subject to western analysis using peroxidase-conjugated goat anti-human IgG antibody (Jackson ImmunoResearch Laboratories) and results are shown in FIG. 10.
Mutants were made and cells transfected as described in Example 1. When the constructs were co-transfected, a 1:1 ratio of plasmids were used. Heterodimer and homodimers were detected by Western blot using goat-anti-human Fc HRP conjugated antibody. […] Similarly, Fc-containing molecules having triple mutations wherein negative-charged residues were changed to positive-charged residues (D399K,E356K,E357K) were unable to be detected when expressed alone. When co-expressed with an Fc-containing molecule having mutations of opposite charge polarity, however, heterodimers only were detected.

Binding result, no binding:
B1
B2
B3
